# Laboratory results taken from patent publication US20040208887A1 (MOLECULES OF MAN, published 2004).
# Columns and labels:
# [1] = biological target: T1, recombinant E1/E2 heterodimer protein (genotype 1a) (hepatitis C virus genotype 1a, UniProt P26664 192-383; P26664 384-746, limits assumed); assay: ELISA, E1/E2 heterodimer coated; crude periplasmic Fab
# T1 construct: also called E1/E2 in complex; recombinant E1/E2 antigen
# [2] = biological target: T2, recombinant soluble HCV E1 protein (hepatitis C virus); assay: ELISA, recombinant E1 captured on GNA lectin; crude periplasmic Fab
# T2 construct: It is not the cell-surface E1-myc construct (aa 174-359 of H77c) that was used for phage selection; also called recombinant E1; soluble E1 protein
# T1 sequence (P26664 192-383 limits assumed, chain 1 of 2): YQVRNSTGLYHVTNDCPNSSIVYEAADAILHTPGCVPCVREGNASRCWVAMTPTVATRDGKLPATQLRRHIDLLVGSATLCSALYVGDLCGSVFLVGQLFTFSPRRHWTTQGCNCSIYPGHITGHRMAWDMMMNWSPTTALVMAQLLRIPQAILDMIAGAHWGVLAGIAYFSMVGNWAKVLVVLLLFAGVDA
# T1 sequence (P26664 384-746 limits assumed, chain 2 of 2): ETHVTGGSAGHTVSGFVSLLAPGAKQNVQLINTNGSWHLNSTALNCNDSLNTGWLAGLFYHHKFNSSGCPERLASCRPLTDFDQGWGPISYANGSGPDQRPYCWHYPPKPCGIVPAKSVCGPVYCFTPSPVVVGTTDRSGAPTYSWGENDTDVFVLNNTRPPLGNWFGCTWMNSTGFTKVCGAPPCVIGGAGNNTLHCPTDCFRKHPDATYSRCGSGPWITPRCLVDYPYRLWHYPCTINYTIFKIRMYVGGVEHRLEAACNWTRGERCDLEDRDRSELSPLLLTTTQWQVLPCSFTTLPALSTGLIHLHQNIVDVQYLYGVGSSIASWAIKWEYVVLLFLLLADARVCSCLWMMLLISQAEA
Binder,OD405 nm [1],OD405 nm [2]
"Fab clone 2b-10 (Fab, V domains shown, Human Fab (gamma1 Fd + kappa), crude periplasmic preparation, approx. >1.0 ug Fab/ml) VH: EVQLLESGGGVVQPGRSLKLSCTASTFTFTNYAMHWVRQAPGKGLEWVALISNDGSKTYYTDSVRGRFTISRDNSKNTLFLQMNSLRTEDTAVYHCARVKLQGSFNVYYYYGLDVWGQGTTVTVSS VL: AELTQSPLSLPVTPGEPASISCRSSQSLLHSDGYNYFDWYLQKPGQSPQLLIYLGSNRASGVPDRFSGSGSDTDFTLKISRVEAEDVGVYYCMQTLQTLTFGGGTKLEIK",0.11 OD405 nm,0.48 OD405 nm
"Fab clone 2b-5 (Fab, V domains shown, Human Fab (gamma1 Fd + kappa), crude periplasmic preparation, approx. >1.0 ug Fab/ml) VH: EVQLLESGGGVVQPGRSLRLSCAASGFTLSTYAMHWVRQAPGRGLEWVAVISYDGDHKFYADSMKGRFAISRDTSTNTLYLEVNSLKIEDTAVYYCARDRDRRGGYVFSTTGGLDSWGQGTLVTVSS VL: AELTQSPLSLAVTPGEPASISCRTSQSLLHSNGYTYLDWYLQKPGQSPQLLIYLASNRASGVPDRFSGSGSGTDFTLEISRVEAEDVGVYYCMQPLQTPVTFGQGTKVEVK",1.4 OD405 nm,2.21 OD405 nm
"Fab clone 1:4 (Fab, V domains shown, Human Fab (gamma1 Fd + kappa), crude periplasmic preparation, approx. 0.01 ug Fab/ml) VH: EVQLLESGPGLVKPSETLSLTCTVSNGSMSNYCWSWIRQSPGKGLEWIGYIYYSGSTSYNPSLRSRVALLVDTSKNQFSLKLTSVTTADTAVYYCARDLSARGGTRNRDALDVWGQGTQVTVSA VL: not shown",0.67 OD405 nm,0.78 OD405 nm
"Fab clone 2b-4 (Fab, V domains shown, Human Fab (gamma1 Fd + kappa), crude periplasmic preparation, approx. 0.68 ug Fab/ml) VH: EVQLLESGGEVKKPGSSVKVSCKASGGPFSSYAIHWVRQAPGQGLEWMGAIIPFLGRAKYAQKFEGRVTITADGSMSTAYMEVSSLRSDDTAMYYCARDRGELLLRMDVWGQGTAVTVSS VL: AELTQSPAFMSATPGDKVNISCKASQDIDDDMNWYQQKPGEAAIFIIQEATTLVPGIPPRFSGSGYGTDFTLTINNIESEDAAYYFCLQHDNFPLTFGQGTKVEIK",0.09 OD405 nm,0.11 OD405 nm
"Fab clone 2b-7 (Fab, V domains shown, Human Fab (gamma1 Fd + kappa), crude periplasmic preparation, approx. 0.54 ug Fab/ml) VH: VQLLEQSGAEVKKPGESLKISCRASGYSFSLFWVAWVRQMPGQGLEWMAIIYPGDSDTTYSPSFEGQVNVSVDKPISTAYLQWSSLKASDTAMYYCARRRSSDRRDAFDIWGPGTMVTVSS VL: AELTQSPAFMSATPGDKVNISCKASQDIDDDMNWYQQKPGEAAIFIIQEATTLVPGIPPRFSGSGYGTDFTLTINNIESEDAAYYFCLQHDNFPLTFGQGTKVEIK",0.32 OD405 nm,0.47 OD405 nm
